Assay results published in US20080166749A1, “Fluorescent Protein Sensors of Post-Translational Modifications” (INVITROGEN CORPORATION, priority 1998, published 2008).
Where no end group is shown, it is not given here.

Legend:
[1] = molecular target: T1, protein kinase A catalytic subunit (Mus musculus, UniProt P05132); assay: Change in fluorescence after incubation with excess protein kinase A; type: biochemical; details: one hour at 30° C., 488 nm excitation, 511 nm emission; for % Change in fluorescence: excess protein kinase A catalytic subunit; for % Change in fluorescence upon phosphorylation: more drastically altered N-terminal sites, excess PKA catalytic subunit
Procedure: (§1) Numbers prior to the sequence indicate amino acid position in wild type GFP (SEQ ID NO:2) where phosphorylation motif starts. The relative rates of phosphorylation compare the rate of phosphorylation of the given phosphorylation motif with the endogenous protein kinase A phosphorylation motif in Aequorea GFP (HKFSV, SEQ ID NO:1) measured by incorporation of ^32P after incubation of the purified substrate and protein kinase A catalytic subunit in the presence of ^32P-labeled ATP using 3 micrograms of GFP, 5 micrograms protein kinase A catalytic subunit, for 10 minutes at 30° C. in standard phosphorylation buffer (20 mM MOPS, pH 6.5, 100 mM KCl, 100 micromolar ATP, 3 mM MgC2, 1 mM DTT and 100 microCi ^32P-labeled ATP. Reactions were terminated by blotting onto phosphocellulose paper and washing with 10% phosphoric acid. The percent change in fluorescence represents the increase in fluorescence (475 nm excitation, 510 nm emission) observed in each purified protein resulting from incubation with excess protein kinase A catalytic subunit for one hour at 30° C. using the same phosphorylation conditions as described above except that no ^32P labeled ATP was present and that after the reaction time was complete, samples were analyzed in a fluoromiter rather than blotted onto phosphocellulose paper.
(§2) Numbers prior to the sequence indicate amino acid position in the wild type GFP where the phosphorylation motif starts. The relative rates of phosphorylation compare the rate of phosphorylation of the given phosphorylation motif with the endogenous protein kinase A phosphorylation motif in Aequorea GFP (HKFSV) measured by incorporation of ^32P after incubation of the purified substrate and protein kinase A catalytic subunit in the presence of ^32P-labeled ATP using the standard protocols described above. The percentage change in fluorescence represents the change in fluorescence (488 nm excitation, 511 nm emission) observed in each purified protein as a result of incubation with excess protein kinase A catalytic subunit for one hour at 30° C. using phosphorylation conditions described above. […] To improve the effect of phosphorylation on fluorescence, amino acids around the phosphorylation site were mutated to create an optimal phosphorylation sequence even if it disordered the existing local tertiary structure. Such disruption was predicted and found to decrease the basal fluorescence of these constructs in their non-phosphorylated state (Table VI).
Numbers prior to the sequence indicate amino acid position in wild type GFP where the phosphorylation site starts. Negative numbers indicate extensions onto the wild-type N-terminus. The percent change in fluorescence represents the change in fluorescence (488 nm excitation, 511 nm emission) observed in each purified protein resulting from incubation with excess protein kinase A catalytic subunit for one hour at 30° C. using standard phosphorylation conditions described earlier.

[2] = molecular target: T1, protein kinase A catalytic subunit; assay: Relative rate of phosphorylation by protein kinase A, ^32P incorporation; type: biochemical; details: relative to endogenous PKA motif HKFSV; sites inserted at the N-terminus of S65T GFP
Procedure: as §1, §2

[3] = test system: activated recombinant MAP kinase; assay: Phosphorylation of GFP Erk sensors by MAP kinase, ^32P incorporation; type: biochemical; details: for ^32P-Incorporation (CPM): 10 μM substrate, 100 ng MAP kinase, 30 minutes at 30° C., mean ± standard deviation of triplicates
Source text: Experiments were terminated and samples processed as described previously in subsection D.4. Results presented in Table X represent means of triplicate determinations ±standard deviations of ^32P-incorporation in washed pellets as described earlier.

[4] = Fluorescent properties of mutants of Aequorea green fluorescent protein (Table I); type: physicochemical
[5] = molecular target: Erk-1 kinase (Homo sapiens, UniProt P27361); assay: Fluorescence change of Erk substrates after phosphorylation and acetate quench; type: biochemical; details: 2 μM GFP, 1 μg Erk-1 kinase, 1 hour at 30° C.; 3 hours in acetate quenching buffer pH 5.0
Procedure: These experiments were performed by incubating the GFP sample (2 μM) with Erk-1 kinase (1 μg) for 1 hour at 30° C. in assay buffer (20 mM MOPS, pH 7.2, 25 mM beta-glycerol phosphate, 5 mM EGTA, 1 mM DTT, 1 mM ATP, 20 mM MgCl2). Reactions were quenched by the addition of acetate quenching buffer (100 μL of 100 mM Acetate pH 5.0, 100 mM NaCl, 20 mM beta-Glycerol phosphate). Fluorescence changes were measured after 3 hours of incubation in acetate quenching buffer. Results represent the means of triplicate determinations.

Erk-1 kinase, sequence (P27361 whole entry): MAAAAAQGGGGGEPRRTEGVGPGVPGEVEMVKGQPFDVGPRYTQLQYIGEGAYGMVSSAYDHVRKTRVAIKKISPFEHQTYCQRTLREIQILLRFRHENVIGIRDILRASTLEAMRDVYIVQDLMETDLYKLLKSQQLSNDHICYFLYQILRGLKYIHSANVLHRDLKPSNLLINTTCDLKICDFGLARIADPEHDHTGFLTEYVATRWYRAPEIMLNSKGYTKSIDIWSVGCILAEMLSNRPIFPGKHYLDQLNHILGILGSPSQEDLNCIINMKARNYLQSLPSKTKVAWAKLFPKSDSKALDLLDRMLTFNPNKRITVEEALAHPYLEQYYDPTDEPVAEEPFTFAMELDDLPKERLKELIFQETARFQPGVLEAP

Row | % Change in fluorescence [1] [%] | Relative rates of phosphorylation [2] | Compound | ^32P-Incorporation (CPM) [3] [CPM] | other results
1 | 5.1 | 5.5 | 1MSKRRDSL: GFP with N-terminal phosphorylation site MSKRRDSL; 7% of wild type fluorescence (not fully specified (C-terminus); printed as 1MSKRRDSL) | – | –
2 | 17 | 3.7 | 1MRDSCLF: S65T GFP with N-terminal phosphorylation site MRDSCLF (not fully specified (C-terminus); printed as 1MRDSCLF) | – | –
3 | 5.7 | 5.1 | 1MRKGSCLF: S65T GFP with N-terminal phosphorylation site MRKGSCLF (not fully specified (C-terminus); printed as 1MRKGSCLF) | – | –
4 | – | – | Erk-5: GFP mutant K8 with Erk kinase motif Met Thr Gly Pro Leu Ser Pro Gly Tyr (MTGPLSPGY; not fully specified; printed as Met Thr Gly Pro Leu Ser Pro Gly Tyr) | 6455 ± 558 | –
5 | – | – | −1MRRRRSIII: S65T GFP with N-terminal phosphorylation site MRRRRSIII, N-terminus extended by one (not fully specified (C-terminus); printed as −1MRRRRSIII) | – | % Change in fluorescence upon phosphorylation [1]: 43%; % Change in fluorescence upon phosphorylation ([1]; listed as MRRRRSIII): about 70%
6 | – | – | Wild type: wild-type Aequorea green fluorescent protein, SEQ ID NO:2 | – | Emission Max [4]: 508 nm; Excitation Max [4]: 395 nm; Extinction Coefficient [4]: 21,000 M − 1 cm − 1; Quantum Yield [4]: 0.77
7 | – | – | O=C(Nc1ccccc1-c1ccc(Cl)cc1)c1cccnc1Cl [Emerald] | – | Emission Max [4]: 508 nm; Excitation Max [4]: 487 nm
8 | – | – | Erk-7: GFP mutant K8 with Erk kinase motif Met Thr Gly Pro Leu Ser Pro Gly Pro (MTGPLSPGP; not fully specified; printed as Met Thr Gly Pro Leu Ser Pro Gly Pro) | 25502 ± 2077 | Km ([3]; kinetic analysis): 15 µM; Fold Increase in Fluorescence after Phosphorylation [5]: 1.05 fold
9 | 8.0 | 1.6 | 1MRKGSLLF: S65T GFP with N-terminal phosphorylation site MRKGSLLF (not fully specified (C-terminus); printed as 1MRKGSLLF) | – | –
10 | – | – | Erk-1: GFP mutant K8 with Erk kinase motif Met Val Glu Pro Leu Thr Pro Ser Phe (MVEPLTPSF; not fully specified; printed as Met Val Glu Pro Leu Thr Pro Ser Phe) | 1579 ± 282 | –
11 | 25 | 2.1 | 1MSRRDSCF: S65T GFP with N-terminal phosphorylation site MSRRDSCF (not fully specified (C-terminus); printed as 1MSRRDSCF) | – | –
12 | 6.0 | 3.0 | 1MRRESLLF: S65T GFP with N-terminal phosphorylation site MRRESLLF (not fully specified (C-terminus); printed as 1MRRESLLF) | – | –
13 | – | – | Erk-4: GFP mutant K8 with Erk kinase motif Met Thr Gly Pro Leu Ser Pro Gly Phe (MTGPLSPGF; not fully specified; printed as Met Thr Gly Pro Leu Ser Pro Gly Phe) | 1982 ± 260 | –
14 | – | – | −2MRRRRSIIIF: S65T GFP with N-terminal phosphorylation site MRRRRSIIIF, N-terminus extended by two (not fully specified (C-terminus); printed as −2MRRRRSIIIF) | – | % Change in fluorescence upon phosphorylation [1]: 15%
15 | – | – | 1IMRRRRSI1: S65T GFP with N-terminal phosphorylation site MRRRRSII (not fully specified (C-terminus); printed as 1IMRRRRSI1) | – | % Change in fluorescence upon phosphorylation [1]: 70%; % Change in fluorescence upon phosphorylation ([1]; listed as 1MRRRRSII): about 70%
16 | – | – | Erk-6: GFP mutant K8 with Erk kinase motif Met Thr Gly Pro Leu Ser Pro Gly Leu (MTGPLSPGL; not fully specified; printed as Met Thr Gly Pro Leu Ser Pro Gly Leu) | 22498 ± 381 | Fold Increase in Fluorescence after Phosphorylation [5]: 1.20 fold
